The target in the experiment is PPH-5 (C. elegans protein phosphatase 5) (C. elegans). In words: competition in sedimentation velocity AUC; 60 uM peptide, 300 nM YFP-Hsp90, 3 uM PPH-5; the peptide competes with YFP-Hsp90.

In the case of AEEDASRMEEVD [C-terminal Hsp90/DAF-21 peptide (…)], the sedimentation coefficient (s20,w) of the YFP-Hsp90/PPH-5 complex in presence of the peptide came out at 7.6 S.

These data come from EP2878677A1, “Activators of protein phosphatase 5” (Deutsches Zentrum für Neurodegenerative Erkrankungen e.V. …, priority 2013, dated 2015).
